This note sets out measurements from article PMC10273302 (Science (New York, N.Y.), 2023).

Residue numbers refer to the chain shown, from its start.

Assay [1] concerns the target T1, EBV minimal peptide PPSTSSKLRPRWTFT (spotted for dot blot) (Human herpesvirus 4 (Epstein-Barr …)).
T1 construct: also called EBV gp350 minimal peptide; 72153; source: "recombinant peptide" spotted on nitrocellulose
T1 chain: PPSTSSKLRPRWTFT
Put plainly: far-Western, overlay or dot blot. The note with it: one partner purified.

The target of assay [2] is T2, influenza A minimal peptide VPNGTLVKTITNDQI (spotted for dot blot) (Influenza A virus (H3 hemagglutinin …)).
T2 chain: VPNGTLVKTITNDQI

B1: EBV_c83 (antibody, V domains shown)
VH: QEQLVQSGTAVKKPGASVKVSCKTSRDTFTIYYIHWVRQAPGQGLEWMGIINPSGGNTSHAQKFQGRVTMTSDASTSTVYMELSSLRFEDTATYYCARVGYNWGSHSVSSPGAMDVWGQGTTVSVSS
VL: SIELTQPSSVSVSPGQTATITCSGDVLPKQYAYWYQQKPGRAPMLVVYKDSERPSGISERFSGSSAGTAVTLTISAVQAEDEADYYCQSADTGGTYVIFGGGTKLTVL
notes: recombinant human IgG
B1: in assay [1], the binding result is recorded as “binds”.

B2: EBV_c63 (antibody, V domains shown)
VH: QVQLVQSGAEVKKPGASVKVSCKASGYTFTSYYIHWVRQAPGQGLEWMGIINPSDGTTDYAQRLQGRVTMTRVTSTSTVYMELSSLRSEDTAVYYCARDREQMVRGIIISNGLDVWGQGTTVTVSS
VL: QSALTQPASVSGSPGQSITFSCTGTSSDVGGYNFVSWYQQHPGKAPKLMIYDVTNRPSGVSNRFSGSKSGNTASLTISGLQAEDEADYYCSSYTSSSTLVFGTGTKVTVL
notes: recombinant human IgG
For the molecule B2, the binding result in assay [1] is recorded as “binds”.

B3: EBV_c124 (antibody, V domains shown)
VH: QVQLVQSGAEVRKPGASVKVSCKASGYTFNTYFIQWVRQAPGQGLEWMGVINSSGSGTRYAPKFRGRVILTRDTSTSTAFMELSSLTSEDTAVYYCARAAEGDYGDSALDYWGQGTLVSVSS
VL: SYELTQPHSVSVSPGQTASIACSGEKLDKKYTCWYQQRPGQSPVLVIYQDRKRPSGIPERFSGSNSGNTATLTISGTQAIDEADYYCQVWDSNTVVFGGGTKLTVL
notes: recombinant human IgG
Turning to B3, the binding result in assay [1] is “binds”.

B4: EBV_c124 with light chain D51K (antibody, V domains shown)
VH: B3 VH
VL: B3 VL with D50K
notes: source: Expi293 or ExpiCHO, recombinant; filtered culture supernatant
Regarding B4, the binding result in assay [1] is on record as “binds”.

B5: EBV_c101 (antibody, V domains shown)
VH: QVHLVQSGTEVKKPGASVKVSCKASGYTFIDYFIHWVRQAPGQGLEWMGIINPGGGSTSYAQKFRGRVTVTRDASTSTVYLELRSLRSDDSAVYYCARGTAVSTNLGLLFDLWGQGTLVSVSS
VL: SYELTQPPSVSVSPGQTARITCSGDDLPKNYAYWYQQKSGQAPTLVINEDNKRPSGIPERFSGSSSGTMATLTISGAQVEDEADYYCFSADSSGTHSVFGGGTKVTVL
notes: recombinant human IgG
As to B5, the binding result in assay [1] was “binds”.

B6: EBV_c3 (antibody, V domains shown)
VH: QVHLVQSGAEVKKSGASVKVSCKASGFTFTNHDINWVRQAPGQGLEWMGWINPNSGNTGFAQKFRGRVTLTRNNSITTAYMELRGLTYEDTAIYYCARAFCNSDRCSPELFDPWGQGTLVTVSS
VL: QSVLTQPPSVSADPGQRVTISCSGSSSNIGNSYVSWYQQLPGTAPRFLIYDNNKRTSGIPDRFSGSKSGTSATLAITGLQTGDEADYYCATWDTSLRGVVFGGGTKLTVL
notes: recombinant human IgG; source: Expi293 or ExpiCHO, recombinant; filtered culture supernatant
On to B6, for which the binding result in assay [1] was “binds”.

B7: EBV_c77 (antibody, V domains shown)
VH: B6 VH with K13R, R65Q, T87R
VL: B6 VL with S25T, S26G, S32N
notes: recombinant human IgG
Consider B7, for which the binding result in assay [1] is listed as “binds”.

B8: EBV_c127 (antibody, V domains shown)
VH: B6 VH with S14F, K19Q, T87R
VL: B6 VL with S25T, N31K, S32N, Y33F, L40F, R46K, T56A, T73I, T94N, V100L
notes: recombinant human IgG
On to B8, for which the binding result in assay [1] is listed as “binds”.

B9: EBV_c138 (antibody, V domains shown)
VH: B6 VH with T87K
VL: B6 VL with Q16H, S25T, S32N, A75T, T77S
notes: recombinant human IgG
As for B9, the binding result in assay [1] is reported as “binds”.

B10: EBV_c120 (antibody, V domains shown)
VH: QVHLVQSGAEVKKPGASVKVSCKASGFAFTTYDINWVRQAAGQGLEWMGWMNPNSGNRGYAQKFQGRVTMTRNTSITTAYMELTSLTSEDTAVYYCARAYCNSNRCSPELFDPWGQGTQVTVSS
VL: QSVLTQPPSVSAAPGQMVTISCSGSSSNIGNNFVSWYQQLPGTVPKYVIYDNNKRPSGIPERFSGSRSGTSATLGITGLQTGDEADYYCATWDSSLRGVVFGGGTKLTVL
notes: as for B6
On to B10, for which the binding result in assay [1] was “binds”.

B11: EBV_c10 (antibody, V domains shown)
VH: B10 VH with K23Q, Q43H, S88P, E89D, Y100F
VL: B10 VL with S25G, L40I, N53D, G75V, S94N
notes: recombinant human IgG
With B11, the binding result in assay [1] is “binds”.

B12: EBV_c98 (antibody, V domains shown)
VH: QVQLVESGGGVVQPGRSLRLSCAASGITLSSYGMHWVRQAPGKGLEWVAVISYDGSKKDYGDSVKGRFTISRDNFKNTLYLQMSSLRAEDTAVYYCAKDTIFDGMDVWGQGTTVTVSS
VL: DVVMTQSPLSLPGTLGQPASISCRSSQSLVYSDGNTYLNWFQQRPGQSPRRLIYQVSNRDSGVPDRFSGSGSGTDFTLTISKVEAEDVGVYYCMQSTHWPLTFGGGTKVEIK
notes: recombinant human IgG
For the molecule B12, in assay [1], the binding result is reported as “binds”.

B13: EBV_c57 (antibody, V domains shown)
VH: QVQLVQSGAEVKKPGASVKVSCKASGYTFTSYDINWVRQAPGQGLEWLGWMNPNNENTGYAQKFQGRIIMTRNTSIDTVYMELSSLRSEDTAVYYCEAIAAVSATEGAFDIWGQGTMVTVSS
VL: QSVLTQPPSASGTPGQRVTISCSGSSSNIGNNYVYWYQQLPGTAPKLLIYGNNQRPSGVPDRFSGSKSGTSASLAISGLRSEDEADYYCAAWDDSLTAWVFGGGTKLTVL
notes: recombinant human IgG
In the case of B13, the binding result in assay [1] is reported as “binds”.

B14: EBV_c186 (antibody, V domains shown)
VH: QVHLVQSGTEVRKPGASVKISCETSGFNFSDYYVHWVRQAPGQGLEWMGIINAGGGSTSYAQRFRGRVTVTRDTSTRSVYMELRSLAPNDTAVYYCTRDRDQRLLFDYWGQGSLLIVSS
VL: SSELTQPPSVSVSPGQTARITCSGDALPKNYAYWYQQKSGQAPVLVIYEDNKRPSGIPERFSGSSSGTTATLTISGAQMEDEGDYYCYSKDRFGGGTKVTVL
notes: recombinant human IgG
In the case of B14, the binding result in assay [1] was “binds”.

B15: EBV_c9 (antibody, V domains shown)
VH: QVQLVQSGAEVKKPGASVKISCKASGYNFTNYYMHWVRQAPGQGLEWMGVINPHDNTNYAQKFRGRFIVTKDTSTTTLHMELRGLRSEDTAVYYCARGPDYVGISSPFDYWGQGTLVTVSS
VL: SHELTQPPSVPVSPGQTARITCSGDGLPKNYAYWYQQKSGQAPVLVIYEDRKRPSGIPERFSGSSSGTMATLTISGAQVEDEADYYCYSGDSNGNHWVFGGGTKLTVL
notes: recombinant human IgG
As for B15, the binding result in assay [1] was “binds”.

B16: EBV_c61 (antibody, V domains shown)
VH: B15 VH with I20V, Y33F, I51L, P53S, H54G, D55A, K71R, G84S, Y101S, V102S
VL: B15 VL with Y31F, Q37K, M69T, V79E, E80D, D84E, S92T
notes: recombinant human IgG
Regarding B16, the binding result in assay [1] was “binds”.

B17: EBV_c19 (antibody, V domains shown)
VH: QVQLVQSGAEVKKPGASVKLSCKASGYNFTNYYMHWVRQAPGQGLEWMGVINHGGLTNYAQRFRGRFIVTRDTSTTTLHMELRSLRSEDTAVYYCARGPDYGGNSSPFDNWGQGTLVTVSS
VL: B15 VL with S92I
notes: recombinant human IgG
For the molecule B17, the binding result in assay [1] was “binds”.

B18: EBV_c149 (antibody, V domains shown)
VH: QVQLVQSGAEVKKPGASVKVSCKASGYNFTNYYMHWVRQAPGQGLEWMGVINPDGGSTSYAQKFRGRFIVTRDTSTTTLHMELRSLRSEDTAVYFCARGPDYVGISSPFDFWGQGTLVTVSS
VL: B15 VL
notes: recombinant human IgG
Turning to B18, the binding result in assay [1] was “binds”.

B19: EBV_c150 (antibody, V domains shown)
VH: QVLLVQSGAEVRKPGASVKLSCTASGYNFTNYYIHWVRQAPGQGLEWMGILNPTGGGTIYPHNFRGRVTMTRETSTSTAYMELKNLTSDDTAVYYCARVPPDDGYFDYWGQGALVTVSS
VL: SYEPTQPPSVSVSPGQTARITCSGDALPKRYVYWYQQKSGQAPALVIYDDTKRPSGIPERFSGSSSGTMATLTINGAQVEDEADYYCYTTGSSVSHVVFGGGTKLTVL
notes: recombinant human IgG
Regarding B19, the binding result in assay [1] is reported as “binds”.

B20: EBV_c40 (antibody, V domains shown)
VH: QVQMVQSGAEVKRPGDSVRVSCKASGYIFTNYHLHWVRQAPGQGLEWMGIVTPNGSRTNYAQKFKGRVIMSSEASTNTLYMDLSSLKSEDTAVYFCARARDLYGDSDFDYWGQGTPVMVSS
VL: SYELSQPPSVSVSPGQTASVSCSGDSLGDKYVSWYQQRPGQSPVVVIYQDRKRPSGIPERFSGSNSGKAATLTISGAQAVDEATYFCQAWESSNVVFGGGTTLTVL
notes: recombinant human IgG
Regarding B20, the binding result in assay [1] is “binds”.

B21: EBV_c40 with light chain D51K (antibody, V domains shown)
VH: B20 VH
VL: B20 VL with D50K
notes: as for B4
On to B21, for which the binding result in assay [1] is listed as “binds”.

B22: flu_c504 (antibody, V domains shown)
VH: EVQLVQSGAEVKKPGESLKISCKASGYTFTRYWIAWVRQMPGKGLEWMGIIYPGDSDTRYNPSFQGQVTISADKSINTAYLQWSSLKASDTAIYYCAMCVGSPTCYGWFDPWGQGTLVTVSS
VL: DIVMTQSPDSLAVSLGERATINCKSSLNILYSSNKKNYLAWYQQKPGQPPKLLIYWASTRESGVPDRFSGSGSGTDFTLTISSLQAEDVAVYYCQQYHSIPYTFGQGSKLEIK
On to B22, for which the binding result in assay [2] is recorded as “binds”.
